Data taken from US20180094075A1 (Pfizer, published 2018).

What was measured:
[1] = target: human PTK7 expressed on cells (cancer cell lines with endogenous PTK7; HEK293T-PTK7 over-expressing cells) (human) (UniProt Q13308); test: flow cytometry, KG1 cells, 10 µg/ml Ab
[2] = target: human PTK7 expressed on cells (cancer cell lines with endogenous PTK7; HEK293T-PTK7 over-expressing cells) (human) (UniProt Q13308); test: flow cytometry, MDAMB361-DYT2 cells, 10 µg/ml Ab
[3] = target: human PTK7 expressed on cells (cancer cell lines with endogenous PTK7; HEK293T-PTK7 over-expressing cells) (human) (UniProt Q13308); test: flow cytometry, HCC827 cells, 10 µg/ml Ab
[4] = target: human PTK7 expressed on cells (cancer cell lines with endogenous PTK7; HEK293T-PTK7 over-expressing cells) (human) (UniProt Q13308); test: flow cytometry, MDAMB468 cells, 10 µg/ml Ab
[5] = target: human PTK7 expressed on cells (cancer cell lines with endogenous PTK7; HEK293T-PTK7 over-expressing cells) (human) (UniProt Q13308); test: flow cytometry, H446 cells, 10 µg/ml Ab
[6] = target: human PTK7 expressed on cells (cancer cell lines with endogenous PTK7; HEK293T-PTK7 over-expressing cells) (human) (UniProt Q13308); test: flow cytometry, H1975 cells, 10 µg/ml Ab
[7] = target: human PTK7 expressed on cells (cancer cell lines with endogenous PTK7; HEK293T-PTK7 over-expressing cells) (human) (UniProt Q13308); test: flow cytometry, H1048 cells, 10 µg/ml Ab
[8] = target: human PTK7 expressed on cells (cancer cell lines with endogenous PTK7; HEK293T-PTK7 over-expressing cells) (human) (UniProt Q13308); test: flow cytometry, H69 cells, 10 µg/ml Ab
[9] = target: human PTK7 expressed on cells (cancer cell lines with endogenous PTK7; HEK293T-PTK7 over-expressing cells) (human) (UniProt Q13308); test: flow cytometry, MV411 cells, 10 µg/ml Ab
[10] = target: human PTK7 expressed on cells (cancer cell lines with endogenous PTK7; HEK293T-PTK7 over-expressing cells) (human) (UniProt Q13308); test: flow cytometry, SKBR3 cells, 10 µg/ml Ab
[11] = target: human PTK7 expressed on cells (cancer cell lines with endogenous PTK7; HEK293T-PTK7 over-expressing cells) (human) (UniProt Q13308); test: flow cytometry, HL60 MX2 cells, 10 µg/ml Ab
[12] = target: human PTK7 expressed on cells (cancer cell lines with endogenous PTK7; HEK293T-PTK7 over-expressing cells) (human) (UniProt Q13308); test: flow cytometry, EKVX cells, 10 µg/ml Ab
[13] = target: human PTK7 expressed on cells (cancer cell lines with endogenous PTK7; HEK293T-PTK7 over-expressing cells) (human) (UniProt Q13308); test: flow cytometry, HEL cells, 10 µg/ml Ab
[14] = target: human PTK7 expressed on cells (cancer cell lines with endogenous PTK7; HEK293T-PTK7 over-expressing cells) (human) (UniProt Q13308); test: flow cytometry, ASPC1 cells (negligible PTK7 expression by immunoblot), 10 µg/ml Ab
[15] = target: human PTK7 expressed on cells (cancer cell lines with endogenous PTK7; HEK293T-PTK7 over-expressing cells) (human) (UniProt Q13308); test: flow cytometry, K562 cells, 10 µg/ml Ab
[16] = target: human PTK7 expressed on cells (cancer cell lines with endogenous PTK7; HEK293T-PTK7 over-expressing cells) (human) (UniProt Q13308); test: flow cytometry, Raji cells, 10 µg/ml Ab
[17] = target: human PTK7 expressed on cells (cancer cell lines with endogenous PTK7; HEK293T-PTK7 over-expressing cells) (human) (UniProt Q13308); test: flow cytometry, HCC1806 cells, 10 µg/ml Ab
[18] = target: human PTK7 expressed on cells (cancer cell lines with endogenous PTK7; HEK293T-PTK7 over-expressing cells) (human) (UniProt Q13308); test: flow cytometry, H2110 cells, 10 µg/ml Ab
[19] = target: human PTK7 expressed on cells (cancer cell lines with endogenous PTK7; HEK293T-PTK7 over-expressing cells) (human) (UniProt Q13308); test: flow cytometry, H1299 cells, 10 µg/ml Ab
[20] = target: human PTK7 expressed on cells (cancer cell lines with endogenous PTK7; HEK293T-PTK7 over-expressing cells) (human) (UniProt Q13308); test: flow cytometry, H522 cells, 10 µg/ml Ab
[21] = target: human PTK7 expressed on cells (cancer cell lines with endogenous PTK7; HEK293T-PTK7 over-expressing cells) (human) (UniProt Q13308); test: flow cytometry, DMS114 cells, 10 µg/ml Ab
[22] = target: human PTK7 expressed on cells (cancer cell lines with endogenous PTK7; HEK293T-PTK7 over-expressing cells) (human) (UniProt Q13308); test: flow cytometry, HCC70 cells, 10 µg/ml Ab
[23] = target: human PTK7 expressed on cells (cancer cell lines with endogenous PTK7; HEK293T-PTK7 over-expressing cells) (human) (UniProt Q13308); test: flow cytometry, H358 cells, 10 µg/ml Ab
[24] = target: human PTK7 expressed on cells (cancer cell lines with endogenous PTK7; HEK293T-PTK7 over-expressing cells) (human) (UniProt Q13308); test: flow cytometry, H526 cells, 10 µg/ml Ab
[25] = target: human PTK7 expressed on cells (cancer cell lines with endogenous PTK7; HEK293T-PTK7 over-expressing cells) (human) (UniProt Q13308); test: flow cytometry, Kasumi-1 cells, 10 µg/ml Ab
[26] = target: human PTK7 expressed on cells (cancer cell lines with endogenous PTK7; HEK293T-PTK7 over-expressing cells) (human) (UniProt Q13308); test: flow cytometry, HL60 cells, 10 µg/ml Ab
[27] = target: human PTK7 expressed on cells (cancer cell lines with endogenous PTK7; HEK293T-PTK7 over-expressing cells) (human) (UniProt Q13308); test: flow cytometry, Hs700T cells, 10 µg/ml Ab
[28] = target: human PTK7 expressed on cells (cancer cell lines with endogenous PTK7; HEK293T-PTK7 over-expressing cells) (human) (UniProt Q13308); test: flow cytometry, HEL92.1 cells, 10 µg/ml Ab

Chain of human PTK7 expressed on cells (cancer cell lines with endogenous PTK7; HEK293T-PTK7 over-expressing cells) (human) (Q13308 31-1070 L93P limits assumed): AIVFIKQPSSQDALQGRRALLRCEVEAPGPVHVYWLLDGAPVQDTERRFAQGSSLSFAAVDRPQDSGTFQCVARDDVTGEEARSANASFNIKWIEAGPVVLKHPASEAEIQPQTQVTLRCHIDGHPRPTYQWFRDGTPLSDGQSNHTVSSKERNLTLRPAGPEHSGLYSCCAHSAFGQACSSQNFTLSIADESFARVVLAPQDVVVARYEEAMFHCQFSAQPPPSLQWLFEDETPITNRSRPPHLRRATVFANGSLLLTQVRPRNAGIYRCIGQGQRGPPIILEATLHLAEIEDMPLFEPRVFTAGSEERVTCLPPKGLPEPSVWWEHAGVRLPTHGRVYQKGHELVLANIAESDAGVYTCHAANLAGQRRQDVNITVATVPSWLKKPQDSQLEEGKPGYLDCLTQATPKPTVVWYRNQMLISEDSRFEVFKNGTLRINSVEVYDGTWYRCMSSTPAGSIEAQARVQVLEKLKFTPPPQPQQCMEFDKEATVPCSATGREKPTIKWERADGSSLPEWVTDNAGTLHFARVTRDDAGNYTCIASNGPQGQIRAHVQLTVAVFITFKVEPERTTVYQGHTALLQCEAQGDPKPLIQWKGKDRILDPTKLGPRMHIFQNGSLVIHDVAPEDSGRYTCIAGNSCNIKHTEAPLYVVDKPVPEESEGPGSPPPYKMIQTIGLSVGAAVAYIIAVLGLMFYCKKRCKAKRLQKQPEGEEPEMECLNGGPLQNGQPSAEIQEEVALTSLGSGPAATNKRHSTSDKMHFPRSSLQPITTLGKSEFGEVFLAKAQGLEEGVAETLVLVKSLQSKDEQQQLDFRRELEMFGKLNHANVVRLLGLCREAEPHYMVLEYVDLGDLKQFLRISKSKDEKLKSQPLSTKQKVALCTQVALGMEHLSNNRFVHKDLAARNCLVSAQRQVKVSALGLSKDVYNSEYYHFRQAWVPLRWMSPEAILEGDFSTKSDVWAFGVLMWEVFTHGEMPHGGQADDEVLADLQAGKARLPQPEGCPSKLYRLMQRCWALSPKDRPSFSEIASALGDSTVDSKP

Mean Fluorescent Intensity [1]: 5.2
Mean Fluorescent Intensity [2]: 8.7
Mean Fluorescent Intensity [3]: 5.8
Mean Fluorescent Intensity [4]: 12
Mean Fluorescent Intensity [5]: 7.1
Mean Fluorescent Intensity [6]: 4.8
Mean Fluorescent Intensity [7]: 4.4
Mean Fluorescent Intensity [8]: 11.2
Mean Fluorescent Intensity [9]: 7.7
Mean Fluorescent Intensity [10]: 14.9
Mean Fluorescent Intensity [11]: 25.2
Mean Fluorescent Intensity [12]: 3.1
Mean Fluorescent Intensity [13]: 15.7
Mean Fluorescent Intensity [14]: 2.6
Mean Fluorescent Intensity [15]: 54.7
Mean Fluorescent Intensity [16]: 20.3
Mean Fluorescent Intensity [17]: 4.6
Mean Fluorescent Intensity [18]: 4.9
Mean Fluorescent Intensity [19]: 3
Mean Fluorescent Intensity [20]: 3.8
Mean Fluorescent Intensity [21]: 9.9
Mean Fluorescent Intensity [23]: 4.5
Mean Fluorescent Intensity [24]: 12.2
Mean Fluorescent Intensity [25]: 5.3
Mean Fluorescent Intensity [26]: 10.9
Mean Fluorescent Intensity [27]: 4.9
Mean Fluorescent Intensity [28]: 7.7
Substance: Negative Control Ab (Table 8) (antibody)
Mean Fluorescent Intensity [22]: 9.4
